This assay concerns the target GST. The assay is described as follows: cross-linking; BS3 0.25 mM, 15 min at RT in PBS with 1 mM DTT, proteins mixed about 1:1; SDS-PAGE, anti-His and anti-GST Western blots. (In western blotting, separated proteins are transferred to a membrane and probed.)

GST (natural protein), sequence (P08515 2-218): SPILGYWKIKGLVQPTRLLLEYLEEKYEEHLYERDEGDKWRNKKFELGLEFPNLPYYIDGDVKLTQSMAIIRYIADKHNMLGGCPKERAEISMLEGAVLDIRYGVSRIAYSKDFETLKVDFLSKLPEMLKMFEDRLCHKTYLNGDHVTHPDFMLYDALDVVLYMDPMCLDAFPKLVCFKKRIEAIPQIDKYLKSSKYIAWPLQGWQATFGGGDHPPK

A word on the stoichiometry N: it is a count of units in the complex or per binding partner. Substance GST (natural protein) displayed a stoichiometry N of 2.

The values are drawn from article PMC5498717.
